T1: GST–Sec22p (yeast, UniProt P22214)
T1 sequence: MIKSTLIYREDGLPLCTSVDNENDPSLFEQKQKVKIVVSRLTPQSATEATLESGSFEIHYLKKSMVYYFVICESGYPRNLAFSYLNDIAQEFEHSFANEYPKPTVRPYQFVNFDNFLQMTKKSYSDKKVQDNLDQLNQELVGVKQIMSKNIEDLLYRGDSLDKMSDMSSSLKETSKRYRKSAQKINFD

T2: heterodimeric GST–Sed5p–His10-Sly1p complex bound to beads (S. cerevisiae, UniProt Q01590;P22213)
T2 sequence 1: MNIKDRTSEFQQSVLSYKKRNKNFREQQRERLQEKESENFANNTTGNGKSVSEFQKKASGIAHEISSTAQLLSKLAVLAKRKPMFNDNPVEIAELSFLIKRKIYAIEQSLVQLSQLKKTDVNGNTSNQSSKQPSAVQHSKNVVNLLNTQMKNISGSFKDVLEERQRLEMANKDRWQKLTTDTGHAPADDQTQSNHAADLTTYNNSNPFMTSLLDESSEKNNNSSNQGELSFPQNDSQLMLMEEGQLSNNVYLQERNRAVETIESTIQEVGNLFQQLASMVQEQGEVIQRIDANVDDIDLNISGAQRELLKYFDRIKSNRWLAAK
T2 sequence 2: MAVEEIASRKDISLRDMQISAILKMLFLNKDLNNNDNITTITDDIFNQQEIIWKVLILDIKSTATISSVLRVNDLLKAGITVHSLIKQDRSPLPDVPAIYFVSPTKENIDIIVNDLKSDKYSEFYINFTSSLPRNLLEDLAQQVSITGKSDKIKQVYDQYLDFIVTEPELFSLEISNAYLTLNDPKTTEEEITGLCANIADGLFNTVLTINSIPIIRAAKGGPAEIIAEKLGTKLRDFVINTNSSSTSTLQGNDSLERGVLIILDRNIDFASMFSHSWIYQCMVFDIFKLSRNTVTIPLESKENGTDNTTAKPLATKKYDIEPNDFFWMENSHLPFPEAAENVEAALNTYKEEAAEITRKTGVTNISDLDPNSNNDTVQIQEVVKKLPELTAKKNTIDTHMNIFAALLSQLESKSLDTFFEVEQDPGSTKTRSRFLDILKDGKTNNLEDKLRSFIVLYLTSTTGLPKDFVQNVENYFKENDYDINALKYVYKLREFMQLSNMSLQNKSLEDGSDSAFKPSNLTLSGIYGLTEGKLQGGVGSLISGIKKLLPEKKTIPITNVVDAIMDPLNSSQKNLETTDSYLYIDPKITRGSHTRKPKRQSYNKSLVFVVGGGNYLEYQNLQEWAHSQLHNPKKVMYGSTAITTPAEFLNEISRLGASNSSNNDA

T3: GST–Sed5p (entire cytosolic region) (S. cerevisiae, UniProt Q01590 1-324)
T3 sequence: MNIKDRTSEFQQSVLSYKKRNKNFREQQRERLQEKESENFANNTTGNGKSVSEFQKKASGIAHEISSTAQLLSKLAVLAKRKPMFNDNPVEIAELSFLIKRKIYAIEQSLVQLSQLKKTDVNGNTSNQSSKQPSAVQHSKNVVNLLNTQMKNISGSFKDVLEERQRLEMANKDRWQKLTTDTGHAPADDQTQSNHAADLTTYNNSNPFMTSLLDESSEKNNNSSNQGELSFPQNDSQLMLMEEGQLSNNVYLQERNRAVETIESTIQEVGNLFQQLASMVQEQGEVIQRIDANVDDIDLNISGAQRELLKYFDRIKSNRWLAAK

T4: preassembled SNARE complex of GST–Sec22p, Sed5p, Bos1p and Bet1p (yeast, UniProt P22214;Q01590;P25385;P22804)
T4 sequence 1: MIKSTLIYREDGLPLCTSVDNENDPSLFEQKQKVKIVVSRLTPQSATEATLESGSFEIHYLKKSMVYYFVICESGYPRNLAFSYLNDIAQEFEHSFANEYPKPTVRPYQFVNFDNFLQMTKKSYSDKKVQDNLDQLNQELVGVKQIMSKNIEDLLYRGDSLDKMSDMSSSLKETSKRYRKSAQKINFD
T4 sequence 2: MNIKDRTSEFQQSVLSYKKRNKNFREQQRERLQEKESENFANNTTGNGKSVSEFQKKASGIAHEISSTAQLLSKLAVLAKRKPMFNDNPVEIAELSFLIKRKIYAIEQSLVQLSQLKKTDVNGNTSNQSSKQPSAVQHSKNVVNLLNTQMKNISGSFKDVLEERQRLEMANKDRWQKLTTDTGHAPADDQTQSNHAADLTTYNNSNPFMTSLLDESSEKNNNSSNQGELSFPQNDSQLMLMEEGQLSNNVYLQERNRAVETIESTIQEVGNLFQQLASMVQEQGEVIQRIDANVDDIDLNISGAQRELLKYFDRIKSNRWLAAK
T4 sequence 3: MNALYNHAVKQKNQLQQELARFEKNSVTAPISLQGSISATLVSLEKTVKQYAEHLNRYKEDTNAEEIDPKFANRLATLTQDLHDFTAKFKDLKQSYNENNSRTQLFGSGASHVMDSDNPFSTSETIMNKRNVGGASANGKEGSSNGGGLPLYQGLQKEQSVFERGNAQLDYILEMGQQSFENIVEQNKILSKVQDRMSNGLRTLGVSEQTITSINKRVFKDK
T4 sequence 4: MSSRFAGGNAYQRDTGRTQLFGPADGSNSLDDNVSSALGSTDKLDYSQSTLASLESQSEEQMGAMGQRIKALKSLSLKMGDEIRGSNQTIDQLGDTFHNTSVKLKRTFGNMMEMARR


Experiments:
Test in all cases: pull-down
GST–Sec22p = molecular target: T1, GST–Sec22p
[1] = molecular target: T2, heterodimeric GST–Sed5p–His10-Sly1p …
[2] = molecular target: T3, GST–Sed5p (entire cytosolic region)
[3] = molecular target: T4, preassembled SNARE complex of …
[4] = molecular target: preassembled SNARE complex of GST–Sec22p, Sed5p, Bos1p and Bet1p with Sly1p (yeast | S. cerevisiae, UniProt P22214;Q01590;P25385;P22804;P22213)

Row | Binder | stoichiometry of Sly1p–Sed5p–Bos1p–Sec22p–Bet1p in the isolated complex (GST–Sec22p) | stoichiometry N [1] | stoichiometry N [2] | stoichiometry N [3] | stoichiometry N [4]
1 | His6-Bos1p lacking the transmembrane (TM) (domain or fragment) MNALYNHAVKQKNQLQQELARFEKNSVTAPISLQGSISATLVSLEKTVKQYAEHLNRYKEDTNAEEIDPKFANRLATLTQDLHDFTAKFKDLKQSYNENNSRTQLFGSGASHVMDSDNPFSTSETIMNKRNVGGASANGKEGSSNGGGLPLYQGLQKEQSVFERGNAQLDYILEMGQQSFENIVEQNKILSKVQDRMSNGLRTLGVSEQTITSINKRVFKDK | 0.8 molar ratio (GST–Sec22p = 1.4) | 1.4 per Sed5p | 1.3 per Sed5p |  | 
2 | His6-Bet1p lacking the COOH-terminal membrane anchor (domain or fragment) MSSRFAGGNAYQRDTGRTQLFGPADGSNSLDDNVSSALGSTDKLDYSQSTLASLESQSEEQMGAMGQRIKALKSLSLKMGDEIRGSNQTIDQLGDTFHNTSVKLKRTFGNMMEMARR | 1.3 molar ratio (GST–Sec22p = 1.4) | 1.3 per Sed5p | 1.5 per Sed5p |  | 
3 | His6-Sec17p (full length) (natural protein) MSDPVELLKRAEKKGVPSSGFMKLFSGSDSYKFEEAADLCVQAATIYRLRKELNLAGDSFLKAADYQKKAGNEDEAGNTYVEAYKCFKSGGNSVNAVDSLENAIQIFTHRGQFRRGANFKFELGEILENDLHDYAKAIDCYELAGEWYAQDQSVALSNKCFIKCADLKALDGQYIEASDIYSKLIKSSMGNRLSQWSLKDYFLKKGLCQLAATDAVAAARTLQEGQSEDPNFADSRESNFLKSLIDAVNEGDSEQLSEHCKEFDNFMRLDKWKITILNKIKESIQQQEDDLL |  |  |  | 3.3 Sec17p per Sed5p | 2.7 Sec17p per Sed5p
